B1: Phosphoglycerate kinase, P18912 (parent)
chain: MNKKTIRDVDVRGKRVFCRVDFNVPMEQGAITDDTRIRAALPTIRYLIEHGAKVILASHLGRPKGKVVEELRLDAVAKRLGELLERPVAKTNEAVGDEVKAAVDRLNEGDVLLLENVRFYPGEEKNDPELAKAFAELADLYVNDAFGAAHRAHASTEGIAHYLPAVAGFLMEKELEVLGKALSNPDRPFTAIIGGAKVKDKIGVIDNLLEKVDNLIIGGGLAYTFVKALGHDVGKSLLEEDKIELAKSFMEKAKEKGVRFYMPVDVVVADRFANDANTKVVPIDAIPADWSALDIGPKTRELYRDVIRESKLVVWNGPMGVFEMDAFAHGTKAIAEALAEALDTYSVIGGGDSAAAVEKFGLADKMDHISTGGGASLEFMEGKQLPGVVALEDK

In the data set the parent is B1. The following applies: Geobacillus stearothermophilus, pH 7.5, 25 °C, Fluorescence, TEA 50 mM, reversible: yes, structure 1PHP, whole UniProt chain shown.

“And” between values parts separate entries of the source, which are not always exact repeats. Identical values can stand only once.

As to W290Y, the unfolding free energy reads like this: (GdnHCl, transition: 3) 11.4 kcal/mol and 8.2 kcal/mol; (Urea, transition: 3) 8.15 kcal/mol.
For the variant W290Y W315Y F379W, the unfolding free energy (GdnHCl, transition: 4) is 4.95 kcal/mol and 10.8 kcal/mol and 8.93 kcal/mol; the unfolding free energy (Urea, transition: 4) was 3.77 kcal/mol and 10.8 kcal/mol and 8.15 kcal/mol.

The values are drawn from FireProtDB (doi:10.1021/bi00066a003).
